From patent US20260056193A1 (SEER, published 2026)
No end group written: not given here.

Key:
Assay in all cases: LC-MS/MS of proteins captured from pooled plasma by peptide-modified nanoparticles
[1] = target: T1, A0A0C4DGL1
T1 construct: Protein found in pooled plasma by LC-MS/MS; only the UniProt ID is printed
Method: (§1) Provided herein are proteins that are captured by surfaces modified with peptides described herein. Briefly, surfaces are modified with the 10K-peptide-MaganinII. Pooled plasma samples containing proteins and the modified surfaces are combined and the surfaces are isolated and captured proteins are analyzed by liquid chromatography tandem mass spectrometry. The nanoparticle prepared in Example 5 was used and selected proteins that include those in Table 9. These proteins were captured by the peptide-modified surface, but not surfaces without peptide modification.

[2] = target: T2, E7EQ47
T2 construct: Protein found in pooled plasma by LC-MS/MS; only the UniProt ID is printed
Method: as §1

[3] = target: T3, A0A0C4DH33
T3 construct: Protein found in pooled plasma by LC-MS/MS; only the UniProt ID is printed
Method: as §1

[4] = target: T4, F8W7Q4
T4 construct: Protein found in pooled plasma by LC-MS/MS; only the UniProt ID is printed
Method: as §1

[5] = target: T5, A0A075B6K0
T5 construct: Protein found in pooled plasma by LC-MS/MS; only the UniProt ID is printed
Method: as §1

T5 sequence (A0A075B6K0 20-115): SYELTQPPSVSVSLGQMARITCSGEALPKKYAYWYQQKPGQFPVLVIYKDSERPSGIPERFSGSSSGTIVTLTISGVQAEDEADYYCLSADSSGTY
T3 sequence (A0A0C4DH33 20-117): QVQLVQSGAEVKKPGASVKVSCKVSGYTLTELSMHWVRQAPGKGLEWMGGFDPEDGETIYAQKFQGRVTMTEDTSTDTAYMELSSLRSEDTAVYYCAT

B1: 10K peptide-MaganinII coupled to Surface 428 nanoparticle (Surface 428-MaganinII) (peptide)
peptide: KKKKKKKKKKGIGKFLHSAKKFGKAFVGEIMNS
modifications: not fully specified; also: coupled through Sulfo-SMCC (maleimide) to thiols of Surface 428 nanoparticle, amine carrying SMCC not given here
notes: Many copies of the peptide stand on one nanoparticle; also called SMCC-MagaininII
[1]
  Median Intensity: 3.62
[2]
  Median Intensity: 3.5
[3]
  Median Intensity: 3.89
[4]
  Median Intensity: 3.55
[5]
  Median Intensity: 3.81
